The source of these data is US20250144207A1, “COMBINATION THERAPY COMPRISING ANTI-CCR9 ANTIBODY AND VINCRISTINE FOR CANCER” (SUNROCK BIOPHARMA S.L., priority 2022, published 2025).

One data set has as its system MOLT4-GFP xenografts. The data set is described as follows: Survival of NSG mice with MOLT4-GFP xenografts, SRB1 combined with chemotherapy agents. The class given is in vivo. The note with it: for Median survival: NSG mice, MOLT4-GFP i.v., SRB1 or isotype 4 mg/kg i.p. x4 weekly, vincristine 0.6 mg/kg i.v. day 5, dexamethasone 50 μg/mouse/dose days 5-9; for # censored subjects / # deaths: same survival study, 10 animals/group.

The next data set addresses T1, CCR9 (Homo sapiens, UniProt P51686).
T1 sequence (P51686 1-369): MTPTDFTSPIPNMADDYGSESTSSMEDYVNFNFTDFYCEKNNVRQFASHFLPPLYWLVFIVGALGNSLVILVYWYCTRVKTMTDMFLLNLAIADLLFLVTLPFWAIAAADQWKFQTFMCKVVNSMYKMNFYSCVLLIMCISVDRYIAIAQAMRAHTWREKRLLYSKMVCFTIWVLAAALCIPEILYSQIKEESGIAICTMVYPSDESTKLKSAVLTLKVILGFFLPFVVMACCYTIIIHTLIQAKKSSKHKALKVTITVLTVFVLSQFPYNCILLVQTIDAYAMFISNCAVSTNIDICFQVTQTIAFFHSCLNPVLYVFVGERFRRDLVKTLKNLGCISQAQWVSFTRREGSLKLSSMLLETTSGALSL
Briefly: CCR9 binding in the presence of CCL25, measured by flow cytometry. An excerpt: Therefore, like “91R” and “92R”, the “SRB1” is preferred for use in the treatment of a condition in which CCL25 concentration may be elevated, including in the treatment of certain cancers as described in detail herein.
For orientation: A flow cytometer gives signals particle by particle.

The subject of the next data set is CCR9+ lymphocyte. The data set is described as follows: Antibody mediated complement-dependent cytotoxicity (CDC). The class given is cell-based. From the text:
The present inventors have, for example, observed antibody mediated complement-dependent cytotoxicity (CDC) utilizing anti-CCR9 antibodies such as “91R”, “92R” and “SRB1” described above.

The target of data set [1] is T2, CCR9 (C-C chemokine receptor type 9) (human, UniProt P51686 1-369, limits assumed).
T2 construct: also called human chemokine receptor CCR9
T2 sequence (looked up): T1 sequence (P51686 1-369)
The data set is described as follows: CCR9 binding in the presence of CCL25; no protocol given.

For the molecule `C[C@@H]1C[C@H]2[C@@H]3CCC4=CC(=O)C=C[C@]4(C)[C@@]3(F)[C@@H](O)C[C@]2(C)[C@@]1(O)C(=O)CO` [DX, dexamethasone], in the data set on MOLT4-GFP xenografts, the “Median survival” value amounted to 47.7 days, the “# censored subjects” value stood at 10 and the “# deaths” value stood at 10.

`CC[C@]1(O)C[C@H]2CN(CCc3c([nH]c4ccccc34)[C@@](C(=O)OC)(c3cc4c(cc3OC)N(C=O)[C@H]3[C@@](O)(C(=O)OC)[C@H](OC(C)=O)[C@]5(CC)C=CCN6CC[C@]43[C@@H]65)C2)C1` [VX, vincristine]: in the data set with MOLT4-GFP xenografts, the “Median survival” value came to 67.9 days, the “# censored subjects” value stood at 10 and the “# deaths” value amounted to 10.

B1: SRB1 anti-CCR9 antibody (antibody, V domains shown)
VH: EVQLVESGGGLVKPGGSLRLSCAASGFTFSKFWMNWVRQAPGKGLEWVGEIRLKSNNYATHYAESVKGRFTISRDDSKNTLYLQMNSLKTEDTAVYYCTSDGWFAYWGQGTLVTVSS
VL: DVQMTQSPSSLSASVGDRVTITCRSSQSLVHSNGNTYLNWYQQKPGKAPKLLIYKVSNRFSGVPSRFSGSGSGTDFTLTISSLQPEDFATYYCSQSTHFPRTFGGGTKVEIK
notes: also called CCR9-targeted antibody (SRB1)
As to B1, in the data set with MOLT4-GFP xenografts, the “Median survival” value amounted to 66.2 days, the “# censored subjects” value is 10 and the “# deaths” value is 10. For the same molecule, the “survival, given as IC50” value with MOLT4-GFP xenografts (SRB1 at 4 mg/kg vs Control (48 days)) is recorded as 70 days. Further, the “CCR9 binding in the presence of the ligand CCL25” value in the data set with CCR9 was “exhibit CCR9 binding in the presence of CCL25”. Moreover, the “complement-dependent cytotoxicity (CDC)” value with CCR9+ lymphocyte is recorded as “observed”. Also, the binding result in data set [1] is “binds”.
